The assay addresses Gastrin-Releasing Peptide Receptor (human (endogenous in PC3)) (UniProt P30550). In words: radioligand binding; displacement of the small-molecule tracer [18F]PD410 from PC3 cells by increasing concentrations of the peptide.

Sequence of Gastrin-Releasing Peptide Receptor (human (endogenous in PC3)) (P30550 whole entry): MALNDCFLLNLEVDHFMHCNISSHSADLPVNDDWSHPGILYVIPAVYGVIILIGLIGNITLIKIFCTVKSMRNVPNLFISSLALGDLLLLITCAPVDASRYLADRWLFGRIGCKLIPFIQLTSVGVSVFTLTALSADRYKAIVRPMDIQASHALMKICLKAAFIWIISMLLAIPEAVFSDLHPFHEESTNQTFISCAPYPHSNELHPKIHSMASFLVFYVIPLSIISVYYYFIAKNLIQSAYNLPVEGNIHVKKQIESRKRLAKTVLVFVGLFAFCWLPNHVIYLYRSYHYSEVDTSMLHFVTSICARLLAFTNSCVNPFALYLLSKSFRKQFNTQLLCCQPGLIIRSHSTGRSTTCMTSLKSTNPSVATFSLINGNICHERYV

For orientation: IC50 means the concentration that inhibits the measured activity by half. A lower IC50 goes with inhibition by little substance. Consider Glu[Aca-BN(7-14)]2 (peptide), for which the IC50 is 100 pM.

The values are drawn from publication PMC5843810, “18th European Symposium on Radiopharmacy and Radiopharmaceuticals” (EJNMMI Radiopharmacy and Chemistry, 2016).
